Data taken from patent US6379665B1, “Phospholipase D polypeptide and DNA sequences” (Onyx Pharmaceuticals, Inc., priority 1996, dated 2002).

Tested on: COS-7 cells
Test: standard headgroup assay of extracts of COS-7 cells transfected with mPLD2
Type: biochemical
Conditions: pCGN expression vector
Description: Human PLD1a was also expressed in COS-7 cells. A fragment of the hPLD1a cDNA encoding the entire open reading frame (nucleotides 93 through 3603 of the cDNA) was subcloned in-frame downstream of the cytomegalovirus promoter and the Flu epitope tag in the mammalian expression vector pCGN. COS-7 cells were transfected with 3 g of the resulting plasmid, pFlu-hPLD1, using lipofectamine (Life Technologies, Inc.). Forty-eight hours later, the cells were assayed for PLD activity in the standard headgroup assay referenced below. The time course of choline release varied linearly over time and in proportion to the amount of protein added.
mPLD2 activity was assessed as described in Example 3 for hPLD1. The mPLD2 protein coding sequence was subcloned in pCGN, an expression vector containing a CMV promoter, flu-epitope tag and an SV40 polyadenylation signal sequence. See Example 3. […] The protein coding sequence of mPLD2 was also subcloned in a baculovirus vector following the protocol of Example 3. mPLD2 activity was successfully detected using the procedures described in Example 3.

B1: mPLD2: murine phospholipase D2, approximately 932 amino acid protein, SEQ ID NO:8 (protein, UniProt P97813 1-933, looked up)
Phospholipase D2: MTVTQKNLFPYGDYLNSSQLHMEPDEVDTLREGEDPADRMHPYLAIYDLQPLKAHPLVFAPGVPVIAQVVGTERYTSGSKVGTCTLYSVRLTHGDFTWTTKKKFRHFQELHRDLQRHKVLMSLLPLARFAVTHSPAREAAAEDIPSLPRGGSEGSARHTASKQKYLENYLNRLLTMSFYRNYHAMTEFLEVSQLSFIPDLGSKGLEGVIRKRSGGHRVPGFTFCGRDQVCYRWSKRWLVVKDSFLLYMRPETGAISFVQLFDPGFEVQVGKRSTETRYGVRIDTSHRSLILKCSSYRQARWWGQEITELAQGSGRDFLQLHQHDSYAPPRPGTLARWFVNGAGYFAAVADAILRAQEEIFITDWWLSPEIYLKRPAHSDDWRLDIMLKRKAEEGVRVSILLFKEVELALGINSGYSKRTLMLLHPNIKVMRHPDLVTLWAHHEKLLVVDQVVAFLGGLDLAFGRWDDVQYRLTDLGDPSEPVHLQTPTLGSDPAATPDLSHNQFFWLGKDYSNLITKDWVQLDRPFEDFIDRETTPRMPWRDVGVVVHGVAARDLARHFIQRWNFTKTTKARYKTPLYPYLLPKSTSTANNLPFMIPGGQCATVQVLRSVDRWSAGTLENSILNAYLHTIRESQHFLYIENQFFISCSDGRTVLNKVGDEIVDRILKAHEQGQCFRVYLLLPLLPGFEGDISTGGGNSIQAILHFTYRTLCRGEHSILHRLKAAMGTAWRDYMSICGLRTHGELGGHPISELIYIHSKMLIADDRTVIIGSANINDRSLLGKRDSELAILIKDTEMEPSLMDGVEYQAGRFALSLRKHCFSVILGANTWPDLDLRDPVCDDFFQLWQETAENNATIYEQIFRCLPSNATRSLRALREYVAVESLATVSPSLAQSELAHIQGHLVHFPLKFLEDESLLPPLGSKEGMIPLEVWT
- PLD activity in transfected COS-7 cell extracts: far above COS-7 background levels
